The source of these data is patent US20250066490A1, “ANTI-CD70 ANTIBODIES, CONJUGATES THEREOF AND METHODS OF USING THE SAME” (ProfoundBio US Co., priority 2021, published 2025).

One assay deals with 786-O cells. Description: Internalization by FACS immune-fluorescence staining, 786-O. Format: cell-based, human. As to the method: (§1) Briefly, 2×10^5 cells were harvested from a tissue culture flask by treatment with 0.25% Trypsin/EDTA and then incubated with 10 μg/ml of the lead antibodies or control antibodies in FACS buffer (1×PBS with 0.1% BSA) for 30 mins at 4° C. The cells were washed at 4° C. to remove unbound antibodies and kept on ice or shifted to 37° C. At the set time points (0 h, 4 h, 24 h), cells were incubated with PE-conjugated anti human Fc (Abcam, Ab98596) for 30 mins at 4° C. and then analyzed by flow cytometry. The internalization ratio was calculated by subtracting the 37° C. MFI from the 4° C. MFI, and then compared with 4° C. MFI.
(§2) Four cell lines ([…]), Caki-1, Raji, MCF-7) were utilized in the internalization assay. Target (CD70) copy numbers were determined via the QIFIKIT (DAKO, K0078). Briefly, cells were labeled with a primary mouse monoclonal antibody against CD70. Cells, Set-up beads, Calibration beads (from the kit) were then labeled in parallel with a fluorescein-conjugated anti-mouse secondary antibody. The fluorescence is correlated with the number of bound primary antibody molecules on the cells and on the beads. Samples were subsequently analyzed on the flow cytometer and copy number determined based on the calibration curve (Table 11). For internalization assay, 3×10^5 cells were incubated at 4° C. for 30 min with 10 µg/ml 2E7 in FACS buffer (1×PBS containing 0.1% BSA). Cells were washed at 4° C. to remove unbound material and kept on ice or shifted to 37° C. for different lengths of time. At progressive timepoints ([…], 0.5, 1, 2, 3, 4 hr) cells were stained with PE-conjugated anti-human Fc for 30 min at 4° C. and analyzed by flow cytometry. Internalization rate were calculated by subtracting the mean fluorescence intensity (MFI) of cell surface-bound antibody at 37° C. at each time point from the MFI of cell surface-bound antibody at 4° C. at time 0, then divided by the MFI of the cell surface-bound antibody at 4° C. at time 0.

Another assay concerns Caki-1 cells. Nature of the assay: Internalization by FACS immune-fluorescence staining, Caki-1. The format is cell-based, human. As to the method: as §1, §2
(Flow cytometry measures light scatter and fluorescence of single cells or particles in a stream.)

In assay [1] the test system is CD70-negative cell line (MCF-7). Nature of the assay: Internalization time course, MCF-7. Format: cell-based. As to conditions: MCF-7, up to 4 hr, FIG. 13. Here is the method: as §2

B1: 2E7: anti-CD70 antibody clone, VH SEQ 7 and VL SEQ 8; tested as scFv and full human IgG1/kappa (antibody, V domains shown)
VH: QVQLQESGPGLVKPSETLSLTCTVSGGSVSSDYYYWSWIRQPPGKGLEWLGYIYYSGSTNYNPSLKSRVTISVDTSKNQFSLKLRSVTTADTAVYYCARGDGDFLGVCFDYWGQGTLVTVSS
VL: EIVLTQSPATLSLSPGERATLSCRASQSVSSYLAWYQQKPGQAPRLLIFDASNRATGIPARFSGSGSGTDFTLTISSLEPEDFAVYYCQQRSNWPLTFGGGTKVEIK
modifications: Synthetic 2E7 VH amino acid sequence; Synthetic 2E7 VL amino acid sequence
notes: tested as scFv and full human IgG1/kappa
Take B1: the “absolute amount of antibody internalized into cell vs parent antibody 69A7” value was “higher absolute amount of antibody internalized into cell than the parent antibody 69A7” in the assay with 786-O cells (based on the cell binding affinity) and “higher absolute amount of antibody internalized into cell than the parent antibody 69A7” in the assay with Caki-1 cells (Caki-1, based on the cell binding affinity). Besides, the “internalization, time course” value in the assay with 786-O cells (up to 4 hr, FIG. 13) is “rapid internalization”; in the assay on Caki-1 cells (Caki-1, up to 4 hr, FIG. 13), “rapid internalization”; in assay [1], “no internalization”.
